According to US20230287125A1 (LEPU BIOPHARMA, published 2023):
Changes are numbered by the printed parent chain.

Assays:
rat TGF-β protein (rat) = assay: ELISA, coated rat TGF-β
[1] = biological target: cynomolgus TGF-β protein (cynomolgus); assay: ELISA, coated cynomolgus TGF-β
[2] = biological target: T1, human PD-L1-his tag protein (human, UniProt Q9NZQ7 19-238); assay: ELISA, coated human PD-L1-His
T1 construct: also called human PD-L1-His protein; recombinant PD-L1 protein; not shown: his tag
T1 sequence (Q9NZQ7 19-238 limits assumed): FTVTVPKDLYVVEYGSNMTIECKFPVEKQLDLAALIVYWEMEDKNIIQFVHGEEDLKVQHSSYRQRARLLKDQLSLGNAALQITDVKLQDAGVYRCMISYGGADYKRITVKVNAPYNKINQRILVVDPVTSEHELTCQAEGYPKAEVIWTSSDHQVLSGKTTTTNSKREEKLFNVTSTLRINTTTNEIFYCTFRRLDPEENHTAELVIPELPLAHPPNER

cynomolgus PD-L1 protein = cynomolgus PD-L1 protein (cynomolgus, UniProt G7PSE7 19-238); assay: ELISA, coated cynomolgus PD-L1
Chain of cynomolgus PD-L1 protein (G7PSE7 entry or part of it): as the sequence (Q9NZQ7 19-238 limits assumed) above, with A33T, A34S, S62N, R68Q, Q82R, F173L, T185A, T192I, H215L counted along it
Experimental: (§1) ELISA testing was carried out to evaluate the binding of chimeric antibodies to human, mouse, rat, and cynomolgus PD-L1, respectively.
(§2) Briefly, microtiter plates were coated with human, mouse, rat and cynomolgus PD-L1 proteins at 0.5 μg/ml in PBS, 100 μl/well at 4° C. overnight, then blocked with 150 μl/well of 1% BSA. Three-fold dilutions of chimeric antibodies starting from 10 μg/ml were added to each well and incubated for 1 hour at 37° C. The plates were washed with PBS/Tween and then incubate with mouse-anti-human IgG Fab antibody conjugated with Horse Radish Peroxidase (HRP) for 30 mins at 37° C. After washing, the plates were developed with TMB substrate and analyzed by spectrophotometer at OD 450 nm.

[3] = biological target: human TGF-β protein (human) (UniProt P01137); assay: ELISA, coated human TGF-β
Chain of human TGF-β protein (human) (P01137 279-390 limits assumed): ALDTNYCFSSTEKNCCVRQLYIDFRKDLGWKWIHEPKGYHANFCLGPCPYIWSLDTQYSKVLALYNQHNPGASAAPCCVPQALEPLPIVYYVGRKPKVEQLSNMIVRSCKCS

mouse PD-L1 protein = mouse PD-L1 protein (mouse, UniProt Q9EP73 19-239); assay: ELISA, coated mouse PD-L1
Chain of mouse PD-L1 protein (Q9EP73 19-239 limits assumed): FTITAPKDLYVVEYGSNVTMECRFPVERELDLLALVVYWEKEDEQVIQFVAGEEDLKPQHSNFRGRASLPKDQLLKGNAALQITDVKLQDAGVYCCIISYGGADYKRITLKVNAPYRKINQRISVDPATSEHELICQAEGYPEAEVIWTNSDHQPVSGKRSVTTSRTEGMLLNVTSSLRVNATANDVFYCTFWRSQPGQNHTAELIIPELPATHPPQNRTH
Experimental: as §1, §2

[4] = biological target: PD-L1 on PD-L1 target cells (Homo sapiens (Human)) (UniProt Q9NZQ7); assay: cell-based or functional assay
Chain of PD-L1 on PD-L1 target cells (Homo sapiens (Human)) (Q9NZQ7 19-290 limits assumed): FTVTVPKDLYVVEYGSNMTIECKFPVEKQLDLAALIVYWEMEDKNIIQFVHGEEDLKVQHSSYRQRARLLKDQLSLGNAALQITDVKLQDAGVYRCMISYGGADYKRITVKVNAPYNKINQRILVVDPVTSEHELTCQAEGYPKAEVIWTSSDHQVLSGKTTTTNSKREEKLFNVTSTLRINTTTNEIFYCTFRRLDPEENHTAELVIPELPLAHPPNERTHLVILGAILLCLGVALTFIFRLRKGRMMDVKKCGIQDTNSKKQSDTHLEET

[5] = biological target: human TGF-β protein (human) (UniProt P01137); assay: cell-based or functional assay
[6] = biological target: mouse TGF-β protein (mouse); assay: ELISA, coated mouse TGF-β
Chain of mouse TGF-β protein (mouse) (P04202 279-390): as the sequence (P01137 279-390 limits assumed) above, with A75S counted along it

rat PD-L1 protein = rat PD-L1 protein (rat, UniProt D4AE25 19-239); assay: ELISA, coated rat PD-L1
Chain of rat PD-L1 protein (D4AE25 entry or part of it limits assumed): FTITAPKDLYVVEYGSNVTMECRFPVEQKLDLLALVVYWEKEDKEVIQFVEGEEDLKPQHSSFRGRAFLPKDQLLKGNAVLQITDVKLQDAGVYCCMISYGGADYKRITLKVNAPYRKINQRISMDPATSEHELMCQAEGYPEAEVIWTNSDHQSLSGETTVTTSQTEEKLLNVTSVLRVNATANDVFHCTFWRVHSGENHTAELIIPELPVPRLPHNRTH
Experimental: as §1, §2

[7] = biological target: T1, human PD-L1-his tag protein; assay: SPR (Biacore T200), mAb captured on Protein A chip, PD-L1-his injected
Experimental: The binding of the humanized antibodies to recombinant PD-L1 protein (human PD-L1-his tag) was tested by Biacore using a capture method. […] A serial dilution of human PD-L1-his tag protein was injected over captured antibody for 2 mins at a flow rate of 30 μl/min. The antigen was allowed to dissociate for 1500 s. All the experiment were carried out on a Biacore T200.

human PD-L1-Fc protein [8] = biological target: T2, human PD-L1-Fc protein (human, UniProt Q9NZQ7 19-238); assay: ELISA, antibody titrated on coated human PD-L1-Fc, OD 450nm; lower left panel
T2 construct: coating antigen of the ELISAs; also called rhPD-L1-Fc; not shown: Fc
T2 sequence (Q9NZQ7 19-238 limits assumed): as the sequence (Q9NZQ7 19-238 limits assumed) above
Experimental: as §2, with “To evaluate antigen binding activity, the humanized antibodies were subjected to ELISA test. Briefly,” for “Briefly,”, “with human PD-L1-Fc protein” for “with human, mouse, rat and cynomolgus PD-L1 proteins”, “with 200” for “with 150”, “of humanized” for “of chimeric”, “then incubated” for “then incubate”, “for 1 hour” for “for 30 mins”

human PD-L1-Fc protein [9] = biological target: T2, human PD-L1-Fc protein; assay: receptor blocking ELISA: coated human PD-L1-Fc, blocked ligand biotin-labeled human CD80-Fc (Bio-CD80), OD 450nm; lower left panel
Experimental: (§3) Briefly, microtiter plates were coated with human PD-L1-Fc protein at 0.5 μg/ml in PBS, 100 μl/well at 4° C. overnight, then blocked with 150 μl/well of 1% BSA at 37° C. for 2 hours. […] The plates were washed with PBS/Tween and then incubated with Streptavidin-HRP for 10 mins at 37° C. After washing, the plates were developed with TMB substrate and analyzed by spectrophotometer at OD 450 nm.

[10] = biological target: T3, human PD-L1 over-expressed on CHOK1 cells (human, UniProt Q9NZQ7 19-290); assay: flow cytometry (MFI) on PDL1-CHOK1 cells; upper left panel
T3 construct: whole, on cells; also called PDL1-CHOK1 cells
T3 sequence (Q9NZQ7 19-290): as the sequence (Q9NZQ7 19-290 limits assumed) above
Experimental: (§4) To evaluate the antigen binding property, the humanized antibodies were analyzed for their binding to PD-L1 overexpressed on mammalian cells by FACS. Briefly, PDL1-CHOK1 cells were firstly incubated with 3-fold serious diluted humanized antibodies starting at 15 μg/ml at 4° C. for 40 mins. After washed by PBS, the Alexa Fluor® 647 AffiniPure Goat Anti-Human IgG (H+L) antibody was added to each well and incubated at 4° C. for 30 mins. The MFI of Alexa Fluor® 647 was evaluated by FACSCanto.

human PD-L1-Fc protein [11] = biological target: T2, human PD-L1-Fc protein; assay: receptor blocking ELISA: coated human PD-L1-Fc, blocked ligand biotin-labeled human PD-1-Fc (Bio-PD1), OD 450nm; lower left panel
Experimental: as §3

[12] = biological target: T1, human PD-L1-his tag protein; assay: SPR (Biacore), affinity ranking, PDL1-His
human PD-L1-Fc protein [13] = biological target: T2, human PD-L1-Fc protein; assay: ELISA, antibody titrated on coated human PD-L1-Fc, OD 450nm; upper right panel
[14] = biological target: T3, human PD-L1 over-expressed on CHOK1 …; assay: flow cytometry (MFI) on PDL1-CHOK1 cells; upper right panel
Experimental: as §4

human PD-L1-Fc protein [15] = biological target: T2, human PD-L1-Fc protein; assay: receptor blocking ELISA: coated human PD-L1-Fc, blocked ligand biotin-labeled human CD80-Fc (Bio-CD80), OD 450nm; middle right panel
Experimental: as §3

human PD-L1-Fc protein [16] = biological target: T2, human PD-L1-Fc protein; assay: receptor blocking ELISA: coated human PD-L1-Fc, blocked ligand biotin-labeled human PD-1-Fc (Bio-PD1), OD 450nm; middle right panel
Experimental: as §3

human PD-L1-Fc protein [17] = biological target: T2, human PD-L1-Fc protein; assay: ELISA, antibody titrated on coated human PD-L1-Fc, OD 450nm; lower right panel
Experimental: as §2, with “To evaluate antigen binding activity, the humanized antibodies were subjected to ELISA test. Briefly,” for “Briefly,”, “with human PD-L1-Fc protein” for “with human, mouse, rat and cynomolgus PD-L1 proteins”, “with 200” for “with 150”, “of humanized” for “of chimeric”, “then incubated” for “then incubate”, “for 1 hour” for “for 30 mins”

human PD-L1-Fc protein [18] = biological target: T2, human PD-L1-Fc protein; assay: receptor blocking ELISA: coated human PD-L1-Fc, blocked ligand biotin-labeled human PD-1-Fc (Bio-PD1), OD 450nm [cont'd]
Experimental: as §3

human PD-L1-Fc protein [19] = biological target: T2, human PD-L1-Fc protein; assay: receptor blocking ELISA: coated human PD-L1-Fc, blocked ligand biotin-labeled human CD80-Fc (Bio-CD80), OD 450nm [cont'd]
Experimental: as §3

Chain of rat TGF-β protein (rat) (P17246 279-390): as the sequence (P01137 279-390 limits assumed) above, with A75S counted along it
Chain of cynomolgus TGF-β protein (cynomolgus) (P09533 279-390): as the sequence (P01137 279-390 limits assumed) above

M7824 (bintrafusp alfa)
EC50 (rat TGF-β protein (rat)): 0.124 µg/mL | EC50 [1]: 0.0397 µg/mL | EC50 [2]: 0.0237 µg/mL | EC50 (cynomolgus PD-L1 protein): 0.0256 µg/mL | EC50 [3]: 0.0434 µg/mL | EC50 (mouse PD-L1 protein): 0.0106 µg/mL | EC50, NFAT-RE-mediated luminescence, PD1 effector cells co-cultured with PD-L1 target cells [4]: 850 pM | IC50, TGF-β SBE luciferase reporter assay in 293 cells [5]: 66.9 pM | EC50 [6]: 0.0462 µg/mL | EC50 (rat PD-L1 protein): 0.0143 µg/mL

B1: Hu47C6A3-3 (antibody, V domains shown)
VH: QVQLQESGPGLVKPSETLSLTCTVSGYSITSDYAWNWIRQPPGKGLEWMGYIIYSGSTSYNPSLKSRITISRDTSKNQFSLKLSSVTAADTAVYYCARSTMIATNWFAYWGQGTLVTVSS
VL: DIQMTQSPSSLSASVGDRVTITCKASQDVSLAVAWYQQKPGKAPKLLIYWASTRHTGVPSRFSGSGSGTDFTLTISSLQPEDFATYYCQQHYITPWTFGGGTKVEIK
notes: humanized
Kd [7]: 444 pM | koff [7]: 0.000966 s⁻¹ | kon [7]: 2.18e+06 M⁻¹ s⁻¹ | EC50 (human PD-L1-Fc protein [8]): 0.015 µg/mL | IC50 (human PD-L1-Fc protein [9]): 0.163 µg/mL | EC50 [10]: 188 pM | IC50 (human PD-L1-Fc protein [11]): 0.029 µg/mL

B2: Hu67F3G7-7 (antibody, V domains shown)
VH: EVQLVQSGAEVKKPGASVKVSCKASGYTFTDFWVSWVRQAPGQGLEWMGEIYPNSGVSRYNEKFKGRVTMTVDKSISTAYMELSRLRSDDTAVYYCTKYFGYTYWFGYWGQGTLVTVSS
VL: DTVLTQSPSSLSASVGDRVTITCRASKSVSTYMHWYQQKPGKAPKLLIYSASHLESGVPSRFSGSGSGTDFTLTISSLQPEDFATYYCQQSNELPVTFGGGTKVEIK
notes: humanized
Kd [12]: 35.3 pM | koff [12]: 9.49e-05 s⁻¹ | kon [12]: 2.69e+06 M⁻¹ s⁻¹ | Kd [7]: 32.8 pM | koff [7]: 7.25e-05 s⁻¹ | kon [7]: 2.21e+06 M⁻¹ s⁻¹ | EC50 (human PD-L1-Fc protein [13]): 0.0124 µg/mL | EC50 [14]: 110 pM | IC50 (human PD-L1-Fc protein [15]): 0.382 µg/mL | IC50 (human PD-L1-Fc protein [16]): 0.14 µg/mL

B3: Hu67F3G7-22 (antibody, V domains shown)
VH: B2 VH
VL: B2 VL with T2I, V3Q, L4M, A43Q
notes: humanized
Kd [12]: 43.5 pM | koff [12]: 7.26e-05 s⁻¹ | kon [12]: 1.67e+06 M⁻¹ s⁻¹ | Kd [7]: 32.6 pM | koff [7]: 5.79e-05 s⁻¹ | kon [7]: 1.78e+06 M⁻¹ s⁻¹ | EC50 (human PD-L1-Fc protein [17]): 0.0078 µg/mL | IC50 (human PD-L1-Fc protein [18]): 0.108 µg/mL | IC50 (human PD-L1-Fc protein [19]): 0.126 µg/mL | EC50 [14]: 118 pM
